This note sets out measurements from the supplement of paper PMC10567573.

To fix the notation:
B1: RHOBTB3 (parent)
chain: DSCCPAGIFQAMCLLICAEMYQVS
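Note: lentivirally expressed fusions sorted by FACS into six bins by GFP to DsRed ratio, PSI derived from sequencing read proportions per bin multiplied by bin number.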

In this series the parent is B1. In words: protein stability index of a GFP-peptide fusion (GPS, HEK-293T) (PSI 1-6); higher = more stable. The conditions noted are these: c terminus: a fixed tail appended.
Take DSCCPAGIFQAMCLLGCAEMYQVS [I16G]: the protein stability index turned out to be 3.97. Under DSCCPAGIFQAMCLLDCAEMYQVS [I16D] stands 1.34. With DSCCPAGIFQAMCLLMCAEMYQVS [I16M] the figure was 2.51. With DSCCPAGIFQAMCLLHCAEMYQVS [I16H] the figure was 2.82; with DSCCPAGIFQAMCLLECAEMYQVS [I16E], 1.7. In the case of DSCCPAGIFQAMCLLLCAEMYQVS [I16L], the protein stability index stood at 2.92. Under DSCCPAGIFQAMCLLNCAEMYQVS [I16N] stands 2.67. On to DSCCPAGIFQAQCLLICAEMYQVS [M12Q], for which the protein stability index was found to be 2.04. With DSCCPAGIFQAYCLLICAEMYQVS [M12Y] the figure was 2.9; with DSCCPAGIAQAMCLLICAEMYQVS [F9A], 2.97; with DSCCPAGIDQAMCLLICAEMYQVS [F9D], 1.51.

Regarding DSCCPAGIPQAMCLLICAEMYQVS [F9P], the protein stability index was found to be 1.51. For the variant DSCCPAGIEQAMCLLICAEMYQVS [F9E], the protein stability index came to 4.01. Under DSCCPAGIFDAMCLLICAEMYQVS [Q10D] stands 2.75; under DSCCPAGIFNAMCLLICAEMYQVS [Q10N], 2.37. Under DSCCPAGIFPAMCLLICAEMYQVS [Q10P] stands 2.72.

Take DSCCPAGIFKAMCLLICAEMYQVS [Q10K]: the protein stability index came out at 3.05. With DSCCPMGIFQAMCLLICAEMYQVS [A6M] the figure was 4.16; with DSCCPTGIFQAMCLLICAEMYQVS [A6T], 2.9. Under DSCCPVGIFQAMCLLICAEMYQVS [A6V] stands 3.18; under DSCCPKGIFQAMCLLICAEMYQVS [A6K], 3.98.

On to DSCCPIGIFQAMCLLICAEMYQVS [A6I], for which the protein stability index worked out at 2.76. On to DSCCPPGIFQAMCLLICAEMYQVS [A6P], for which the protein stability index is 2.76. With DSCCPCGIFQAMCLLICAEMYQVS [A6C] the figure was 3.25.

Consider DSCCPLGIFQAMCLLICAEMYQVS [A6L], for which the protein stability index was 2. With DSCCPAGEFQAMCLLICAEMYQVS [I8E], the protein stability index worked out at 1.48. With DSCCPAGMFQAMCLLICAEMYQVS [I8M] the figure was 1.95.

Take DSCCPAGPFQAMCLLICAEMYQVS [I8P]: the protein stability index stood at 1.68. With DSCCPAGVFQAMCLLICAEMYQVS [I8V] the figure was 3.73; with DSCCPAGRFQAMCLLICAEMYQVS [I8R], 2.55. Under DSCCPAGIFQAMCLLICALMYQVS [E19L] stands 5.4; under DSCCPAGIFQAMCLLICAKMYQVS [E19K], 2.48; under DSCCPAGIFQAMCLLICASMYQVS [E19S], 2.06.

As for DSCCPAGIFQAMCLLICANMYQVS [E19N], the protein stability index stood at 2.31. Under DSCCPAGIFQAMCLLICAMMYQVS [E19M] stands 1.55; under DSCCPAGIFQAMCLLICADMYQVS [E19D], 2.72.

In the case of DSCCPAGIFQAMCLLICAGMYQVS [E19G], the protein stability index amounted to 2.99. With DSCCPAGIFQAMCLLICAVMYQVS [E19V] the figure was 3.28; with DSCCPAGIFQAMCLLICAAMYQVS [E19A], 2.92; with DSCCPAGIFQAMCLLICHEMYQVS [A18H], 3.29. Under DSCCPAGIFQAMCLLICLEMYQVS [A18L] stands 2.35; under DSCCPAGIFQAMCLLICCEMYQVS [A18C], 2.87; under DSCPPAGIFQAMCLLICAEMYQVS [C4P], 2.84.

With DSCQPAGIFQAMCLLICAEMYQVS [C4Q], the protein stability index was 2.56. Regarding DSCMPAGIFQAMCLLICAEMYQVS [C4M], the protein stability index came out at 4.

For the variant DSCTPAGIFQAMCLLICAEMYQVS [C4T], the protein stability index came out at 2.08. With DSCVPAGIFQAMCLLICAEMYQVS [C4V] the figure was 2.88; with DSCCPAGIFQAMCLNICAEMYQVS [L15N], 1.98; with DSCCPAGIFQAMCLHICAEMYQVS [L15H], 1.08.

Regarding DSCCPAGIFQAMCLYICAEMYQVS [L15Y], the protein stability index came to 1.98. With DSCCPAGIFQAMCLFICAEMYQVS [L15F] the figure was 2.97; with DSCCPAGIFQAMCLWICAEMYQVS [L15W], 1.09. Under DSCCPAGIFQAMCLSICAEMYQVS [L15S] stands 3.51; under DSCCPAGIFQAMCLIICAEMYQVS [L15I], 3.1; under DSCCPAGIFQAMCLMICAEMYQVS [L15M], 2.19. With DSCCPAGIFQAMCALICAEMYQVS [L14A] the figure was 3.65; with DSCCPAGIFQAMCELICAEMYQVS [L14E], 3.59. Regarding DSCCPAGIFQAMCTLICAEMYQVS [L14T], the protein stability index was found to be 2.78. Take DSCCPAGIFQAMCILICAEMYQVS [L14I]: the protein stability index amounted to 2.24. Under DSCCPAGIFQAMCLLICAETYQVS [M20T] stands 2.03; under DSCCPAGIFQAMCLLICAEVYQVS [M20V], 2.24. With DSCCPAGIFQIMCLLICAEMYQVS [A11I] the figure was 2.4; with DSCCPAGIFQKMCLLICAEMYQVS [A11K], 1.32. With DSCCPAGIFQYMCLLICAEMYQVS [A11Y] the figure was 3.96; with DSCCPAGIFQCMCLLICAEMYQVS [A11C], 2.69; with DSCCPAGIFQAMCLLIRAEMYQVS [C17R], 4.51.

DSCCPAGIFQAMCLLIMAEMYQVS [C17M]: the protein stability index was 5.55. Under DSCCPAGIFQAMCLLINAEMYQVS [C17N] stands 3.58; under DSCCPAGIFQAMCLLIHAEMYQVS [C17H], 4.02.

As for DSCCPAGIFQAMCLLIDAEMYQVS [C17D], the protein stability index was found to be 1.91.

DSCCPAGIFQAMCLLITAEMYQVS [C17T]: the protein stability index worked out at 2.97. Under DSCCPAGIFQAMILLICAEMYQVS [C13I] stands 4.59; under DSCCPAGIFQAMHLLICAEMYQVS [C13H], 2.4; under DSCCPAGIFQAMWLLICAEMYQVS [C13W], 3.35. With DSCCPAGIFQAMQLLICAEMYQVS [C13Q] the figure was 4.88; with DSCCPAGIFQAMALLICAEMYQVS [C13A], 3.91. Consider DSCCPAGIFQAMPLLICAEMYQVS [C13P], for which the protein stability index was determined as 2.42. Under DSCCPAGIFQAMYLLICAEMYQVS [C13Y] stands 2.77; under DSCCPAGIFQAMNLLICAEMYQVS [C13N], 3.63; under DSCCPAHIFQAMCLLICAEMYQVS [G7H], 2.75. With DSCCPANIFQAMCLLICAEMYQVS [G7N], the protein stability index was 2.19. With DSCCPAFIFQAMCLLICAEMYQVS [G7F] the figure was 2.49; with DSCCPAIIFQAMCLLICAEMYQVS [G7I], 3.28. With DSCCPAEIFQAMCLLICAEMYQVS [G7E] the figure was 1.72; with DSCCPAYIFQAMCLLICAEMYQVS [G7Y], 2.8. DSCCKAGIFQAMCLLICAEMYQVS [P5K]: the protein stability index worked out at 2.16. With DSCCIAGIFQAMCLLICAEMYQVS [P5I] the figure was 2.61.

As for DSCCLAGIFQAMCLLICAEMYQVS [P5L], the protein stability index worked out at 2.87. With DSCCAAGIFQAMCLLICAEMYQVS [P5A] the figure was 1.65.

As to DSCCNAGIFQAMCLLICAEMYQVS [P5N], the protein stability index came to 3.01. For the variant DSCCHAGIFQAMCLLICAEMYQVS [P5H], the protein stability index was found to be 3.17. Under DSCCPAGIFQAMCLLICAEMEQVS [Y21E] stands 2.38; under DSCCPAGIFQAMCLLICAEMIQVS [Y21I], 4.41; under DSCCPAGIFQAMCLLICAEMGQVS [Y21G], 3.18.
